For the data set, the target named is T1, IclR (XyrR, XynR homolog) (Serratia sp. ATCC 39006, UniProt A0A2I5T4I6 1-255).
T1 sequence: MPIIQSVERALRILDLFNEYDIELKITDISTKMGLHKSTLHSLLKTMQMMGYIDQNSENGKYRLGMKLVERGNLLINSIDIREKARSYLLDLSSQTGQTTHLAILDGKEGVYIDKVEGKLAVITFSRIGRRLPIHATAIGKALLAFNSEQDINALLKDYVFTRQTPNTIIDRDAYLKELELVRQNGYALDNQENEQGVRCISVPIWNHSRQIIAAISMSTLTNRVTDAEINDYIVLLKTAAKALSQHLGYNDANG
The data set can be described thus: EMSA; complete shift at 0.8 uM IclR (stated protein:DNA 32:1; Methods state probe 5 nM); 10 mM Tris-HCl pH 8, 5 mM DTT, 50 mM KCl, 1 mM MgCl2, 10% glycerol, 0.1% Triton X-100, 30 min at 20 C; 5 nM probe. As to conditions: protein: recombinant; tags: 6xHis (pQE80); chain copies: 2; label: Cy5 on LUEGO strand (S13); three strands: S15 (long) pairs with S13 followed by S14; nick between S13 and S14; blunt. For orientation: A gel shift assay detects complexes by their altered migration in electrophoresis.

B1: yagE promoter LUEGO probe (dsDNA)
DNA 1: CACCACAAATTGCAGTGTTAGTATCATTTCGTTAATGTAGAACTTAGTTCTATAATATAAAACAAAATATCAATGAAGATCGACTGACACATATCGATTGTTGTGA
DNA 2: TCACAACAATCGATATGTGTCAGTCGATCTTCATTGATATTTTGTTTTATATTATAGAACTAAGTTCTACATTAACGAAATGATACTAACACTGCAATTTGTGGTGCCAGACCAGGGCAC
DNA 3: GTGCCCTGGTCTGG
Take B1: the binding result is reported as “binds”.

The record behind these values is publication PMC11778176, “The IclR-family transcriptional regulator XyrR controls flotation, motility, antibiotic production and virulence in Serratia sp. ATCC 39006”.
